The target of data set [1] is T1, thrombin (alpha-thrombin) (Homo sapiens, UniProt P00734;P00734 P00734:315-363,P00734:364-622). The data set is described as follows: filter.
The target in the next data set is prothrombin (Homo sapiens, UniProt P00734 P00734:44-622). The experiment in a line: filter; 50 nM prothrombin. The note with it: tags: Athens Research. The method, then:
Dot blot binding assays were performed throughout the selections to monitor the protein binding affinity of the pools. Trace ³²P-labeled RNA was combined with a dilution series of human Thrombin (1 nM-1000 nM) and incubated at room temperature for 30 minutes in 1×DPBS (w/ Ca²⁺ and Mg²⁺) (Gibco, Catalog #14040, Invitrogen, Carlsbad, Calif.) plus 0.1 mg/ml BSA in a final volume of 30 μl. The binding reactions were analyzed by nitrocellulose filtration using a Minifold I dot-blot, 96-well vacuum filtration manifold (Schleicher & Schuell, Keene, N.H.). A three-layer filtration medium was used, consisting (from top to bottom) of Protran nitrocellulose (Schleicher & Schuell, Keene, N.H.), Hybond-P nylon (Amersham Biosciences, Piscataway, N.J.) and GB002 gel blot paper (Schleicher & Schuell, Keene, N.H.). RNA that is bound to protein is captured on the nitrocellulose filter, whereas the non-protein bound RNA is captured on the nylon filter. The gel blot paper was included simply as a supporting medium for the other filters. Following filtration, the filter layers were separated, dried and exposed on a phosphor screen (Amersham Biosciences, Piscataway, N.J.) and quantified using a Storm 860 Phosphorimager® blot imaging system (Amersham Biosciences, Piscataway, N.J.).
Based on pool binding monitored throughout the selections as described above, Round 9 Pools from both Selection #2 and #3 were also cloned using a TOPO TA Cloning kit (Invitrogen, Carlsbad, Calif.) according to manufacturer's instructions, and sequenced. Of the 136 sequences obtained from Round 9 of both selections, 130 unique sequences were selected for assaying in a single-point dot blot screen against thrombin and prothrombin to test for selective binding to thrombin. Clones were ordered from IDT (Coralville, Iowa) at 25 μmole synthesis scale. Clone transcripts were 5′ end labeled with γ̅³²P ATP and spin purified with Centrisep columns (Princeton Separations, Adelphia, N.J.) to remove excess label. Trace amounts of labeled clone were incubated with +/−10 nM Thrombin (or +/−50 nM prothrombin) and 0.1 mg/ml BSA in a total volume of 30 μl 1×DPBS (w/ Ca²⁺ and Mg²⁺) (Gibco, Catalog #14040, Invitrogen, Carlsbad, Calif.) for 30 minutes. Post incubation, the binding reaction applied the dot-blot binding assay apparatus previously described.

In data set [2] the target is T1, thrombin (alpha-thrombin). The experiment in a line: filter; 10 nM thrombin.

One may read the Kd as a measure of binding affinity in units of concentration. Read a low Kd as a tighter complex. ACTGCCTAGGTTGGGTAGGGTGGTGGCAGT (ssDNA, PS linkage between nt 17 and 18) [ARC2660] yielded a dissociation constant (Kd) in data set [1] of 230 pM.
For the molecule TCCCATCGAACCTCGAGGGTATTGTTGGCTTGGGTGGCTGAGGATCGATC (ssDNA) [AMX(399)_G3], the binding signal with prothrombin was 22.6 % bound; in data set [2], 20.8 % bound.
In the same order, the values of TCCCTTGATCCTGGTACATATATTTTCTGGGTGGCTGAGGATCGATC (ssDNA) [AMX(399)_F2] are 7.92 % bound and 7.37 % bound.
As to TCCCGGTATCGTCATGCTGGTGGAATTGGTTGGGTGGCTGAGGATCGATC (ssDNA) [AMX(399)_G5], the binding signal with prothrombin was 18.9 % bound; in data set [2] it was 23.2 % bound.
As to ACTGCCTAGGTTGGGTAGGGTGGTGGCAGT (ssDNA, PS linkage between nt 26 and 27) [ARC2669], in data set [1], binding was put at a Kd of 129 pM.
Molecule ACTGCCTAGGTTGGGTAGGGTGGTGGCAGT (ssDNA, PS linkage between nt 21 and 22) [ARC2664] gave an equilibrium dissociation constant (Kd) in data set [1] of 211 pM.
The molecule ACTGCCTAGGTTGGGTAGGGTGGTGGCAGT (ssDNA, PS linkage between nt 4 and 5) [ARC2647] had an equilibrium dissociation constant (Kd) in data set [1] of 161 pM.
As for TCCCGAGATCTTTATAGGGTATTGTTGGTTGGGGTGGCTGAGGATCGATC (ssDNA) [AMX(399)_E12], the results for the binding signal (with prothrombin; in data set [2]) were 25.1 % bound and 20.3 % bound, respectively.
Take ACTGCCTAGGTTGGGTAGGGTGGTGGCAGT (ssDNA, PS linkage between nt 6 and 7) [ARC2649]: the equilibrium dissociation constant (Kd) in data set [1] turned out to be 264 pM.
Regarding TCCCGTCGGTCCGTTCGGTATTTTTTTCTGGGTGGCTGAGGATCGATC (ssDNA) [AMX(399)_F10], the binding signal with prothrombin turned out to be 22.1 % bound; in data set [2], 21.3 % bound.
In data set [1], ACTGCCTAGGTTGGGTAGGGTGGTGGCAGT (ssDNA, PS linkage between nt 28 and 29) [ARC2671] came in with a Kd of 158 pM.
For the molecule TCCCGACTTTAGATCCGTGTTGGATGGCCTGGGTGGCTGAGGATCGATC (ssDNA) [AMX(399)_H2], the binding signal in data set [2] is 5.49 % bound.
The molecule ACTGCCTAGGTTGGGTAGGGTGGTGGCAGT (ssDNA, PS linkage between nt 3 and 4) [ARC2646] registered an equilibrium dissociation constant (Kd) in data set [1] of 169 pM.
In data set [1], ACTGCCTAGGTTGGGTAGGGTGGTGGCAGT (ssDNA, PS linkage between nt 18 and 19) [ARC2661] returned a Kd of 246 pM.
Still for that read-out and setting: for ACTGCCTAGGTTGGGTAGGGTGGTGGCAGT (ssDNA, PS linkage between nt 9 and 10) [ARC2652] the value was 192 pM.
Take TCCTTGTCGAGCCTTGGGGTAGTGTTGGTTTGGGTGGCTGAGGATCGATC (ssDNA) [AMX(399)_F3]: the binding signal is 8.7 % bound with prothrombin and 9.8 % bound in data set [2].
For the molecule TCCCATCGATCAGTGGTGGCTTGGCTGGTTTGGGTGGCTGAGGATCGATC (ssDNA) [AMX(399)_G6], the binding signal with prothrombin was determined as 38.6 % bound; in data set [2] it was 39.7 % bound.
The molecule ACTGCCTAGGTTGGGTAGGGTGGTGGCAGT (ssDNA, PS linkage between nt 22 and 23) [ARC2665] had a Kd in data set [1] of 121 pM.
In data set [1], ACTGCCTAGGTTGGGTAGGGTGGTGGCAGT (ssDNA, PS linkage between nt 27 and 28) [ARC2670] registered a Kd of 160 pM.
Take TCCCGCTCGATTTCGAAGAATGGTTGGTTTGGGTGGCTGAGGATCGATC (ssDNA) [AMX(398)_B11]: the binding signal in data set [2] amounted to 9.76 % bound.
Turning to ACTGCCTAGGTTGGGTAGGGTGGTGGCAGT (ssDNA, PS linkage between nt 20 and 21) [ARC2663], the dissociation constant Kd in data set [1] was 180 pM.
With TCCCGATCGGTCCCAAGGGTATTGTTGGTTTGGGTGGCTGAGGATCGATC (ssDNA) [AMX(399)_F7], the binding signal in the data set with prothrombin worked out at 34.2 % bound; in data set [2], 29.6 % bound.
As for ACTGCCTAGGTTGGGTAGGGTGGTGGCAGT (ssDNA, PS linkage between nt 24 and 25) [ARC2667], the Kd in data set [1] was determined as 459 pM.
Regarding TCCCTATGGATTCGGGGTACGTTAGTTCTGGGTGGCTGAGGATCGATC (ssDNA) [AMX(399)_F11], the binding signal was found to be 35.7 % bound in the data set with prothrombin and 35.1 % bound in data set [2].
On to ACTGCCTAGGTTGGGTAGGGTGGTGGCAGT (ssDNA, PS linkage between nt 13 and 14) [ARC2656], for which the dissociation constant Kd in data set [1] was found to be 151 pM.
Consider ACTGCCTAGGTTGGGTAGGGTGGTGGCAGT (ssDNA, PS linkage between nt 8 and 9) [ARC2651], for which the affinity in data set [1], expressed as Kd, was 111 pM.
For ACTGCCTAGGTTGGGTAGGGTGGTGGCAGT (ssDNA, PS linkage between nt 14 and 15) [ARC2657], in data set [1], the dissociation constant (Kd) was found to be 219 pM.
The molecule ACTGCCTAGGTTGGGTAGGGTGGTGGCAGT (ssDNA, PS linkage between nt 25 and 26) [ARC2668] came in with a Kd in data set [1] of 159 pM.
Regarding TCCCGTGATCTCTGGGGTAACGTCTTGGTGTGGGTGGCTGAGGATCGATC (ssDNA) [AMX(399)_F1], the binding signal with prothrombin worked out at 19.4 % bound; in data set [2], 16.7 % bound.
Regarding ACTGCCTAGGTTGGGTAGGGTGGTGGCAGT (ssDNA, PS linkage between nt 19 and 20) [ARC2662], the dissociation constant (Kd) in data set [1] was determined as 165 pM.
Regarding TCCCATCGTCTGTGGTATAGGAACTTCTGGGTGGCTGAGGATCGATC (ssDNA) [AMX(399)_G2], the values for the binding signal (in the data set with prothrombin; in data set [2]) were 7.28 % bound and 18.8 % bound, respectively.
On to TCCCGAGAGATTCAAAAGGGACTGGGCGGTTGGGTGGCTGAGGATCGATC (ssDNA) [AMX(399)_H4], for which, in data set [2], the binding signal is 7.7 % bound.
Take TCCCATGTGTTAGATCCGTGTGGTTGGACTGGGTGGCTGAGGATCGATC (ssDNA) [AMX(398)_C3]: the binding signal in data set [2] was 10.8 % bound.
With TCCCGTTCGGTCCGTATACTGGTGGTGGTTGGGTGGCTGAGGATCGATC (ssDNA) [AMX(399)_F4], the values for the binding signal (with prothrombin; in data set [2]) were 25 % bound and 28.1 % bound, respectively.
Consider TCCCGCTATTCGATCTTCAATTGGGTGGTCAGGGTGGCTGAGGATCGATC (ssDNA) [AMX(399)_F9], for which the figures for the binding signal (with prothrombin; in data set [2]) were 26 % bound and 25.2 % bound, respectively.
Regarding ACTGCCTAGGTTGGGTAGGGTGGTGGCAGT (ssDNA, PS linkage between nt 5 and 6) [ARC2648], in data set [1], the Kd came out at 128 pM.
TCCCAAGATCGATGCTGGTAGTGTTTTCTGGGTGGCTGAGGATCGATC (ssDNA) [AMX(399)_F6]: the binding signal with prothrombin amounted to 11.9 % bound; in data set [2], 10 % bound.
In turn, ACTGCCTAGGTTGGGTAGGGTGGTGGCAGT (ssDNA, PS linkage between nt 15 and 16) [ARC2658] registered a Kd in data set [1] of 253 pM.
As to ACTGCCTAGGTTGGGTAGGGTGGTGGCAGT (ssDNA, PS linkage between nt 29 and 30) [ARC2672], the equilibrium dissociation constant (Kd) in data set [1] stood at 141 pM.
Molecule TCCCGATCGCTGTCCTAGGATGGGTAGGGTGGTGGCTGAGGATCGATC (ssDNA) [AMX(399)_G10] registered a binding signal in data set [2] of 38.4 % bound.
For the molecule ACTGCCTAGGTTGGGTAGGGTGGTGGCAGT (ssDNA, PS linkage between nt 7 and 8) [ARC2650], in data set [1], binding was characterised by a dissociation constant (Kd) of 230 pM.
In the case of ACTGCCTAGGTTGGGTAGGGTGGTGGCAGT (ssDNA, PS linkage between nt 11 and 12) [ARC2654], the dissociation constant Kd in data set [1] was determined as 95 pM.

The values are drawn from patent US20090221680, “Aptamers that bind thrombin with high affinity” (published 2009).
